# Data as given in patent publication US20230174598A1 (UNIVERSITY OF FLORIDA RESEARCH FOUNDATION, published 2023).
# Numbering of substitutions follows the chain as printed. Numbers in names are those of the source.
# B1: H10C arrestin-1 (bovine, His(6), C63A/C143A) labeled with monobromobimane (other)
# chain: MHHHHHHKANKPAPNCVIFKKISRDKSVTIYLGKRDYIDHVERVEPVDGVVLVDPELVKGKRVYVSLTAAFRYGQEDIDVMGLSFRRDLYFSQVQVFPPVGASGATTRLQESLIKKLGANTYPFLLTFPDYLPCSVMLQPAPQDVGKSAGVDFEIKAFATHSTDVEEDKIPKKSSVRLLIRKVQHAPRDMGPQPRAEASWQFFMSDKPLRLAVSLSKEIYYHGEPIPVTVAVTNSTEKTVKKIKVLVEQVTNVVLYSSDYYIKTVAAEEAQEKVPPNSSLTKTLTLVPLLANNRERRGIALDGKIKHEDTNLASSTIIKEGIDKTVMGILVSYQIKVKLTVSGLLGELTSSEVATEVPFRLMHPQPEDPDTAKESFQDENFVFEEFARQNLKDAGEYKEEKTDQEAAMDE
# modifications: monobromobimane (mBBr) on Cys 10
# notes: Cysteine-substitution mutant, made in Pichia pastoris; also called H10C-mBBr
# B2: D362K arrestin-1 (bovine, His(6)-tagged charge-reversal mutant) (other)
# chain: B1 chain with C16H, A69C, A149C, D368K
# B3: R29E arrestin-1 (bovine, His(6)-tagged charge-reversal mutant) (other)
# chain: B1 chain with C16H, R35E, A69C, A149C
# B4: E361K arrestin-1 (bovine, His(6)-tagged charge-reversal mutant) (other)
# chain: B1 chain with C16H, A69C, A149C, E367K
# B5: S210C arrestin-1 (bovine, His(6), C63A/C143A) labeled with monobromobimane (other)
# chain: B1 chain with C16H, S216C
# modifications: monobromobimane (mBBr) on Cys 210
# notes: Cysteine-substitution mutant, made in Pichia pastoris
# B6: K267C arrestin-1 (bovine, His(6), C63A/C143A) labeled with monobromobimane (other)
# chain: B1 chain with C16H, K273C
# modifications: monobromobimane (mBBr) on Cys 267
# notes: as for B5
# B7: V281C arrestin-1 (bovine, His(6), C63A/C143A) labeled with monobromobimane (other)
# chain: B1 chain with C16H, V287C
# modifications: monobromobimane (mBBr) on Cys 281
# notes: as for B5
# B8: V94C arrestin-1 (bovine, His(6), C63A/C143A) labeled with monobromobimane (other)
# chain: B1 chain with C16H, V100C
# modifications: monobromobimane (mBBr) on Cys 94
# notes: as for B5
# B9: R189C arrestin-1 (bovine, His(6), C63A/C143A) labeled with monobromobimane (other)
# chain: B1 chain with C16H, R195C
# modifications: monobromobimane (mBBr) on Cys 189
# notes: as for B5
# B10: R37C arrestin-1 (bovine, His(6), C63A/C143A) labeled with monobromobimane (other)
# chain: B1 chain with C16H, R43C
# modifications: monobromobimane (mBBr) on Cys 37
# notes: as for B5
# B11: K166C arrestin-1 (bovine, His(6), C63A/C143A) labeled with monobromobimane (other)
# chain: B1 chain with C16H, K172C
# modifications: monobromobimane (mBBr) on Cys 166
# notes: as for B5
# B12: E361G arrestin-1 variant (bovine) (other)
# chain: B1 chain with C16H, A69C, A149C, E367G
# B13: E361G/D362A arrestin-1 variant (bovine) (other)
# chain: B1 chain with C16H, A69C, A149C, E367G, D368A
# B14: E361A/D362A arrestin-1 variant (bovine) (other)
# chain: B1 chain with C16H, A69C, A149C, E367A, D368A
# B15: E361A/D362G arrestin-1 variant (bovine) (other)
# chain: B1 chain with C16H, A69C, A149C, E367A, D368G
# B16: D362G arrestin-1 variant (bovine) (other)
# chain: B1 chain with C16H, A69C, A149C, D368G
# B17: D362A arrestin-1 variant (bovine) (other)
# chain: B1 chain with C16H, A69C, A149C, D368A
# B18: E361A arrestin-1 variant (bovine) (other)
# chain: B1 chain with C16H, A69C, A149C, E367A
# B19: E361G/D362G arrestin-1 variant (bovine, His(6)-tagged) (other)
# chain: B1 chain with C16H, A69C, A149C, E367G, D368G
# Molecular target: T1, bovine enolase-1 (bovine, UniProt Q9XSJ4 1-434, AlexaFluor-546 maleimide on reactive cysteines (pulldown assay only; unlabeled in the quench and activity assays))
# T1 construct: also called Eno1; alpha-enolase
# T1 sequence (Q9XSJ4 whole entry): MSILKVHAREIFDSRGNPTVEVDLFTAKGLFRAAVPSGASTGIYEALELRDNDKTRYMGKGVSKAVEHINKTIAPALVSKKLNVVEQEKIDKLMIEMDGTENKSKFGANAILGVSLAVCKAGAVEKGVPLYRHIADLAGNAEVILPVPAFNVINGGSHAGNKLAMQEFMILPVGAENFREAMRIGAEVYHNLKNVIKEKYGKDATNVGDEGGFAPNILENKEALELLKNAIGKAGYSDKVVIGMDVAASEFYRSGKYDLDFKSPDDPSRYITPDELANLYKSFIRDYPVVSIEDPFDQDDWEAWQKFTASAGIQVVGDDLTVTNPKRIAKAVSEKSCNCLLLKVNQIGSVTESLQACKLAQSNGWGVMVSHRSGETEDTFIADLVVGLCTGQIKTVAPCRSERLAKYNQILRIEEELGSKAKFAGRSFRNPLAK
# Test: titration of enolase-1 (0-12.5 µM) on 0.25 µM H10C-mBBr, KI quench protection
# Source text: FIGS. 1A-1B. Graph illustrating optimization of fluorescence quench and quench protection.
# B. Enolase concentration. The concentration of enolase-1 that could provide protection of mBBr fluorescence from quenching by the KI was then titrated. […] 90% quench protection was selected as the criterion value, which corresponded to a 20-fold molar excess of enolase-1 to arrestin-1.
row,quench protection at 20-fold molar excess of enolase-1 [%],Molecule
1,90,B1

# Molecular target: T1, bovine enolase-1
# Test: anti-arrestin-1 (C10C10) immunoprecipitation pulldown of AlexaFluor546-labeled enolase-1; 5 µM each
# Protocol: E. Immunoprecipitation/Enolase Pulldown assay. The interaction between arrestin-1 and enolase-1 was assessed by using anti-arrestin-1 antibody to immunoprecipitate the arrestin-1-enolase-1 complex in which the enolase-1 was fluorescently labeled with AlexaFluor546. For this assay, 1.5 mg of Protein G-coated magnetic beads (DynaBeads, ThermoFisher), were coated with 10 μg of purified C10C10 anti-arrestin-1 monoclonal antibody (Donoso et al. (1990) S-antigen: preparation and characterization of site-specific monoclonal antibodies. Curr Eye Res 9, 343-355). Enolase-1 was labeled on its reactive cysteines with AlexaFluor-546 maleimide (ThermoFisher), reacting the enolase-1 with 100-fold molar excess of the fluorescent label. The fluorescently labeled enolase-1 was then sequentially dialyzed in LAP200^N buffer to remove any unreacted label. For the immunoprecipitation of the arrestin-1-enolase-1 complex, 5 μM arrestin-1 (or arrestin-1 variant) was mixed with 5 μM enolase-1-Alexa546 in LAP200^N in a 200 μL final volume for 2 h at 4° C., to which 10 μg of anti-arrestin-1 antibody on magnetic beads was subsequently added for 16 h with gentle rotation. The beads were magnetically captured, washed ten times with LAP200^N buffer, and then eluted with 0.1 M glycine (pH 2.5). After neutralizing the pH with 0.1 volume 1.5 M Tris base (pH 8.5), the fluorescence of the captured enolase-1-Alexa546 was measured, exciting fluorescence at 530 nm, and measuring average emission at 570-575 nm with a dual-detector fluorimeter (QM-1 steady state fluorescence spectrophotometer, Photon Technologies Inc).
# The charge-pair interactions identified in example 1 were selected to further investigate the modeled arrestin-1/enolase-1 interaction. Seven charged-pair interactions (Table 3 and FIG. 4A) were identified from the model as having the closest interactions. […] Following heterologous expression and purification, each arrestin-1 mutant was then assessed for its interaction with enolase-1, using an anti-arrestin-1 immunoprecipitation assay to pulldown fluorescently labelled enolase-1.
row,reduction of enolase-1 pulldown relative to wild-type arrestin-1 [%],Molecule
1,~25,B2
2,~25,B3
3,~25,B4

# Molecular target: T1, bovine enolase-1
# Test: KI quench protection of mBBr-labeled arrestin-1; 0.25 µM arrestin-1, 5 µM (20-fold) enolase-1
# Protocol: C. Quenching assay. Cysteine mutants of arrestin-1 were labeled with monobromobimane (mBBr, ThermoFisher), reacting the arrestin-1 protein with 100-fold molar excess of the fluorescent label for two hours at room temperature. The unreacted label was removed by dialyzing against three sequential changes of 500-volumes of LAP200 buffer. […] Fluorescence quenching of the mBBr fluorophore was performed using 0.25 μM mBBr-labeled arrestin-1 with 100 mM potassium iodide in the presence or absence of 5 μM bovine enolase-1 that had been heterologously expressed and purified as previously described for arrestin-1, monitoring fluorescence emission at 470 nm. To determine the degree to which enolase-1 shielded a residue from quenching by potassium iodide, a protection factor was calculated as follows: […]
# C. Mapping interaction of arrestin-1 with enolase-1. […] The fluorescence emission of the mBBr-labeled arrestin-1 with and without potassium iodide was measured to determine the range of quenching by KI. The fluorescence emission quench by KI with and without enolase-1 was then measured. A quench protection factor was calculated as described in the experimental procedures (Table 2). […] When mapped onto the surface of the arrestin-1 structure, these residues largely mapped to a single surface along the “bottom” of the arrestin protein (FIG. 2B).
F(A+E+K) (fluorescence with enolase-1 and KI),Pf (quench protection factor),Molecule
8720,0.618,B5
2850,0.484,B6
2440,0.269,B7
1900,0.062,B8
11100,0.467,B9
10300,0.792,B1
16600,0.564,B10
1040,0.026,B11

# Molecular target: T1, bovine enolase-1
# Test: cell-based or functional assay
row,% inhibition of enolase-1 catalytic activity [%],Molecule
1,18.3,B12
2,8.3,B13
3,9,B14
4,1.3,B15
5,20.7,B16
6,22.2,B17
7,21.1,B18
8,0.7,B19

# Molecular target: SDM-Eno: enolase-1 with all seven corresponding charge-reversal mutations (bovine) (UniProt Q9XSJ4)
# Sequence (Q9XSJ4 whole entry, change not shown): as the sequence (Q9XSJ4 whole entry) above
# Test: anti-arrestin-1 (C10C10) immunoprecipitation pulldown of AlexaFluor546-labeled enolase-1; 5 µM each
row,decrease of pulldown compared to pulldown of wild-type enolase-1 [%],Molecule
1,> 80,"bovine wild-type arrestin-1, N-terminally His(6)-tagged (from UniProt P08168 2-404)"
